Article PMC4899722

Assays:
[1] = target: heteromeric ASIC1a/2a (oocytes co-expressing ASIC1a and ASIC2a) (rat) (UniProt P55926)
[2] = target: ASIC1a-2a-1a concatamer (rat) (UniProt P55926)
[3] = target: ASIC1a-2a-2a concatamer (rat) (UniProt P55926)

Work on “psalmotoxin 1 (PcTx1) (from UniProt P60514 1-40) (peptide)” yielded a current left after 50 nM PcTx1 in the conditioning solution (pH 6.95), activation with pH 4.0, two-electrode voltage clamp in Xenopus oocytes; percent of the first current amplitude [1] of 66.5%, a current left after 50 nM PcTx1 in the conditioning solution (pH 6.95), activation with pH 4.0, two-electrode voltage clamp in Xenopus oocytes; percent of the first current amplitude [2] of 15.7% and a current left after 50 nM PcTx1 in the conditioning solution (pH 6.95), activation with pH 4.0, two-electrode voltage clamp in Xenopus oocytes; percent of the first current amplitude [3] of 64.8%.
